From PMC2768988 (2009)

Target: T1, Flrt3 ectodomain (zebrafish, biotin on the enzymatically biotinylatable sequence (bait form))
T1 chain: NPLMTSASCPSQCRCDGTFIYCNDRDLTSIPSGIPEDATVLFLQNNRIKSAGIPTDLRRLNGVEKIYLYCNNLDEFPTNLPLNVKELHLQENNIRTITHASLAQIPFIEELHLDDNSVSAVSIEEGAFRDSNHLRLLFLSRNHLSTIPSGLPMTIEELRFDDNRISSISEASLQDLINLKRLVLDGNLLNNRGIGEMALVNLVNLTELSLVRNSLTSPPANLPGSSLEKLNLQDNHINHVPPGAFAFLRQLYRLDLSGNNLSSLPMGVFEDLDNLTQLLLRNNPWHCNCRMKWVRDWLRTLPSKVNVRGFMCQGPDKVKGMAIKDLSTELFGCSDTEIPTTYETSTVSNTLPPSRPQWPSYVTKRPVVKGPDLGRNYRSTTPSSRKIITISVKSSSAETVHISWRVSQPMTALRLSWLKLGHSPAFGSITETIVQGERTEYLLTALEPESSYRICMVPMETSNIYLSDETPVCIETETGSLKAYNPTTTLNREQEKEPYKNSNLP
Experiment: SPR

B1: Unc5b-Cd4d3+4-6His (domain or fragment)
chain: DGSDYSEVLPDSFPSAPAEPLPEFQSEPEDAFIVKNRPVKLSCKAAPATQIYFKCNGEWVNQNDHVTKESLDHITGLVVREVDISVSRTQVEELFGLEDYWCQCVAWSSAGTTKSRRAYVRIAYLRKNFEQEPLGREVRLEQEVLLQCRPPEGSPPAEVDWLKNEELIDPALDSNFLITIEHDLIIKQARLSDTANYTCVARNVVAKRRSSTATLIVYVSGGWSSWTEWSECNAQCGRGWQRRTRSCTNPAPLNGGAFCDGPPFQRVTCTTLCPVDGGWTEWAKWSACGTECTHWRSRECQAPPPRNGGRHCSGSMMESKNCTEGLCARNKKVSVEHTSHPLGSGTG
koff: 5.5 s⁻¹
